# From US20220227872A1 (published 2022)
# T1: hTEM1-SpyC (human TEM1 extracellular domain fused to SpyCatcher) (UniProt Q9HCU0 18-687, covalently bound to biotinylated SpyTag peptide (bSpyT))
# T1 chain: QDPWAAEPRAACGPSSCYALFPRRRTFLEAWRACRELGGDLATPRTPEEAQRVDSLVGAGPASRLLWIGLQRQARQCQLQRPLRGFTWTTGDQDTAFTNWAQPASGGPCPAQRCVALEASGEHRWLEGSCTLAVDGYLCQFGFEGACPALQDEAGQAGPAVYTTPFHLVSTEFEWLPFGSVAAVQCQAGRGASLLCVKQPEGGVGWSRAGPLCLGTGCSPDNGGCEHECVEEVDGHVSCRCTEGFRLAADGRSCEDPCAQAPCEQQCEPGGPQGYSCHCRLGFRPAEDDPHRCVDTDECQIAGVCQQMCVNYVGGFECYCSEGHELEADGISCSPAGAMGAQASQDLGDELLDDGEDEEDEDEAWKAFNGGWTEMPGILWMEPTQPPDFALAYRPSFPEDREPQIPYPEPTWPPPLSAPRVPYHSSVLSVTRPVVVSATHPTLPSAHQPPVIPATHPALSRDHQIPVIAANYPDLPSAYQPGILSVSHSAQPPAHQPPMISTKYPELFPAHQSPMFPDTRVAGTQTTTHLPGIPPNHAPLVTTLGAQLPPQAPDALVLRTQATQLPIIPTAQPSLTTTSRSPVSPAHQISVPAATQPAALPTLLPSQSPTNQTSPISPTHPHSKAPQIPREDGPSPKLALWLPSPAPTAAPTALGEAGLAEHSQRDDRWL
# B1: hTEM1-SpyC (other)
# chain: T1 chain
# modifications: covalently bound to biotinylated SpyTag peptide (bSpyT)
# B2: 1C1mut BiTE (1C1mut scFv fused to an scFv derived from anti-CD3 clone UCHT1) (bispecific antibody, V domains shown)
# VH: QVQLVQSGAEVKKPGSSVKVSCKASGGTFSSYAISWVRQAPGQGLEWMGGIIPIFGTANYAQKFQGRVTITADKSTSTAYMELSSLRSEDTAVYYCASLISYYGDPTGFDYWGQGTLVTVSS
# VL: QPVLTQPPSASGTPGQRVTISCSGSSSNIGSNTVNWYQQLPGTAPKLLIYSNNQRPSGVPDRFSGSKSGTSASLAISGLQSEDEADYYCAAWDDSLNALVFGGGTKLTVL
# Key:
# [1] = target: 1C1 BiTE; experiment: SPR; BiTE analyte, hTEM1-SpyC immobilized
# [2] = target: T1, hTEM1-SpyC (human TEM1 extracellular …); experiment: SPR; BiTE analyte, hTEM1-SpyC immobilized
Binder,Kd [1] [nM],Kd [2] [nM]
B1,~68,–
B2,–,~1
